Here are results for 1 molecule from patent CN113912710A (SURE BIOTECH HANGZHOU LTD, dated 2022).

Assay [1] has as its target T1, MERS-CoV Nucleocapsid Protein(His Tag), 货号40068-V08B (MERS-CoV, UniProt K9N4V7 1-411).
T1 construct: also called MERS病毒的N蛋白; MERS-CoV-NP
The assay can be described thus: ELISA, cross-reaction test. A general note: In an ELISA, binding on a coated surface is turned into a signal by an enzyme label.

The target in assay [2] is T2, SARS-CoV Nucleocapsid Protein(His Tag), 货号40143-V08B (SARS-CoV, UniProt P59595 1-422).
T2 construct: also called SARS病毒的N蛋白; SARS-CoV-NP
In words: ELISA, cross-reaction test.

B1: 单克隆抗体Mouse anti-SARS-COV-2 Mab4(NP-Ab) (antibody, V domains shown)
VH: VKLQESGPELKKPGETVRISCKASGYTLTDYSIHWVKQAPGKGLKWMGWINTETVEPTYTDDFKGRFAFSLETSASTAYLQINNLKNEDTATYFCASTGTEFDYWGQGTTLTVSS
VL: DVVMTQTPLSLPVSLGDQASISCRSSQSLVHITGNTYLHWYLQKPGQSPKLLIYKVSNRFSGVPDRFSGSGSGTDFTLKISRVEAEDLGVYFCSQSTHVPLTFGAGTKLELK
notes: also called A1-1; A1-1号抗体
Consider B1, for which the binding result in assay [1] and in assay [2] was “no binding” each time.
